Assay: soluble on expression in E. coli; label from the status in PepcDB or PDB records

Sequence: MRGLSRRVQAMKPDAVVAVNAKALELRRQGVDLVALTAGEPDFDTPEHVKEAARRALAQGKTKYAPPAGIPELREALAEKFRRENGLSVTPEETIVTVGGSQALFNLFQAILDPGDEVIVLSPYWVSYPEMVRFAGGVVVEVETLPEEGFVPDPERVRRAITPRTKALVVNSPNNPTGAVYPKEVLEALARLAVEHDFYLVSDEIYEHLLYEGEHFSPGRVAPEHTLTVNGAAKAFAMTGWRIGYACGPKEVIKAMASVSRQSTTSPDTIAQWATLEALTNQEASRAFVEMAREAYRRRRDLLLEGLTALGLKAVRPSGAFYVLMDTSPIAPDEVRAAERLLEAGVAVVPGTDFAAFGHVRLSYATSEENLRKALERFARVLGRA
- soluble on expression in E. coli: soluble

Sequence: MPKGGASCLTPVYAGIRDDLNSFLRAYLQFESVRFFDYKVMFENRGMVGLFTGRHNSAEIIEFNECLLVHCLPYMEECVCPGTPRSLKERLFGLYSLYTFYYIQQEKHVVKVRMDPDSSRNFRRFAQFLLTEKIYDAYALCQKLLEDKAIKQVAFISIHDPSHFKRFYTDDKVSGVSIRTNLNDPLVNVKALVEQFDALGVIHKEYSRLKMKLGITSWMKLKDPIEELKKIIKTSLQAVESSSGVDEIVHTDHSAQQLASRGMQRSSIKDQAHSAALKFSRTRRHRSVKPVIVPAETFEYAPDPKKKKEAQETMPVSGRNGRKRGRPKSVPKSKVSNPARILYEKLAEDMISEHLSTDLTEQEAFTDRPQSSLEPQKNELFNWDAAPQDAQISNQTTEPSCGEDIFIEDFGEFKSQDDVMFTAEDFNDSLIPPLADSDSDLEIDA
- soluble on expression in E. coli: not soluble

Sequence: MGHHHHHHSHLSPEPPVYSLQDFDTLATVGTGTFGRVHLVKEKTAKHFFALKVMSIPDVIRLKQEQHVHNEKSVLKEVSHPFLIRLFWTWHDERFLYMLMEYVPGGELFSYLRNRGRFSSTTGLFYSAEIICAIEYLHSKEIVYRDLKPENILLDRDGHIKLTDFGFAKKLVDRTWTLCGTPEYLAPEVIQSKGHGRAVDWWALGILIFEMLSGFPPFFDDNPFGIYQKILAGKIDFPRHLDFHVKDLIKKLLVVDRTRRLGNMKNGANDVKHHRWFRSVDWEAVPQRKLKPPIVPKIAGDGDTSNFET
- soluble on expression in E. coli: not soluble

Sequence: MGSDKIHHHHHHMAYRSAPIADDIIWRAAPQPEDASLADAVRETIASTRKHLLDFIRLDETPPPAAMTLAQWTRPATFRSLLAAYSDHIYRHTPGLPRENKPLLSLWAQWYIGLMTPPLMLALLTQARAINVSAEHIHVEFHETGRAACFWLDVHQDNLATERSPEERMETLIVSALQPVIQALEATGDINAKLIWSNTGYLINWYLTEMKPLLGEALLATLRQRCFFEKQLSDGQDNPLWRTVVMRDGLLVRRTCCQRYRLPDVQQCGDCTLK
- soluble on expression in E. coli: not soluble

Sequence: VFLPTNAQYQLLVVGVSPWDTPSPSGRISWGSAWPHQARRAQTCQRVRRHWMIDTTEAAYRLTYQPDGTSITVRENLVDILARELLGPIRGPQEVLPFSPRSQYLVGHLAPVKLTGAALIDDNAVQARANAEALAEGGGVPAYAADETTPTPTTTPKTAHPSRA
- soluble on expression in E. coli: not soluble

Sequence: MGSDKIHHHHHHLPRRYEDIYPSLPLLNSDGLEHMSAASLMSVRYFQAEPDRMPEDVFAEHHILLNLKAEPHRVQNTRDGEMRDFTFSKNDIIVTPAGMRSGWRWFAQSDVIVVTLLPDRVQRFAETELGLLLDPQQLGDLPLFSDADLCAAGVMLRDALEADDMSSAVMFEALSRVFLVKLLQRYGKRRPEDVALSSRFTSAHYNRVLAFIRANLERTITLDDLASEAGMSPSHFSRLFKDTVGTPPMQYVMAYRIEQSLAMMTDQGRALGDIALACGFADQAHFSRSFKQLMGATPRQHRSSLS
- soluble on expression in E. coli: not soluble

Sequence: MSLGKYFGTDGVRGVANTELTPELAFKLGRIGGYVLTKDKENPKVLIGRDTRISGEMLEGALVAGLLSIGVEVMRLGVISTPGVAFLTKAVSASAGVMISASHNPVADNGIKFFGPDGFKLLDEQEKEIETLLDQEDALPRPTGADLGQANDYFEGAQKYLQFLKQTVDEDFTGIHIALDCANGAASSLAPHLFADLEADISTMGTSPNGKNINDGVGSTHPEALAAFVNAKNADIGLAFDGDADRLIAVDEKGNIVDGDKILYICAKYMKEKGLLKQQTLVTTVMSNLGLYKALEALQIDTKQTAVGDRYVMEEMRKGGYNLGGEQSGHIIFLDHITTGDGMLSALQLVNIMKQTGKKLSELAEEWETFPQTLVNIRVTDKHAVTDNEKVPAVIKEVEQEMNGEGRVLVRPSGTEPLVRIMVEAKTEELCDAFVNKIADVVKAELGQEEGHHHHHH
- soluble on expression in E. coli: soluble

Sequence: MSLLNSPLAERIRPQNLSEYLSQNHLVGERGTLRQHILNGTIPSLILWGPPGTGKTTLANIIAQESKRPFYTLSAINSGVKDVREVIDKAKSAGGLFTAKNPILFIDEIHRFSKSQQDSLLAAVEKGWVTLIGATTENPSFEVIPALLSRCQVYVLDAFAKADLEQLLHRAMKIDEVLSIKDITIQETEALLRISGGDARKLLNIFELVINSQPSGPIVITNELVFEQVQSNPARYDKTGEQHYDIISAFIKSIRGSDPNAAVYWLARMIEGGEDLKFIARRMLILASEDIGNANPTALIMANNTFQAVSTIGYPESRIILSQCAIYLATSIKSNASYLAIGQAQQIVKQTGDLPVPLGLRNAPTKLMKELGYGQEYKYAHDHPGNFAQFDFLPTEISGTKIFNPGNNPREQAQREFLEKRWKEHYDYKPSKGEGHHHHHH
- soluble on expression in E. coli: soluble

Sequence: GRSLGKLGMRYGKKRVHIAKRNLELAFPEKTPEEVQHIVEENFKNTGMALIETGITWFWPTWRFKTLIVEKDIHALKEKGAEGK
- soluble on expression in E. coli: not soluble

Sequence: MGSDKIHHHHHHMLPNRLLANRAYSTAINRFRVVEVGARDGLQAEKKFVPTEIKVELIDRLSECGFQTVETTSFVSPKWVPQLADHNEIVKKHRRFEGVSYPVLVPNAAGLKNALATGVVEEIAVFGAASDAFSLKNVNSNVEDSLKKLMEVTKIALENNIRVRGYVSVVVGCPYQGAVQPEMVARVAEKLLESGCYEVSLGDTIGVGTVKTVSKMLDTVLKSVPAEKLAVHFHDTYGQALANVLISIEKGIRSADSSIAGLGGCPYAKGATGNLATEDLLYFLKGNGFETGVNLDKVVETAKWFNEAAGYDKWSRVGAAMMAKKSKSCC
- soluble on expression in E. coli: not soluble

Sequence: MGSDKIHHHHHHMDIGHRMKELRIQYGLTQQELADRAELTKGFISQLERNQNSPSVGTLLDIIQCLGMTPAEFFTDSEPEQIVYKANDYFEKIDEEKNSKVEWIIPNAQTRSMEPVRLTLHPGGSSEIYLPQECEEFGYVIKGTVKLCYGGKVHTVKAGESFYFKAGKKHFIENKSSKDAMLIWVSNPPSF
- soluble on expression in E. coli: not soluble

Sequence: MAFIGRDDDLKQLQECFTERRAQLVFVYGRRRVGKTETLIQLAKDKETLFFAAQNATKDEQLASFSRLMFEAGAPGKDYLSQYPSWERALTELTRLPEPSDGGRRLVIFDEFPYLVKSDPSLPSVLQNLWDHTLRHANLMIVICGSAMSFIEKELLGEKSPLYGRATGILKMLPMPYWDAAQFFPNYSGEDKALAYAILGGIPRYLEEFDPDETIDANVKRHILRRIAPLYSEVEFLLHEELRETAKYNSVIRAIALGATSLNEIATHTMMANATVSSYLANLMELGIVEREFPVTAKPKERAKGSRGLYQLSDNFFRFWYSFVFPYRSELERGDVEGVYERHIKPVLHDFAGKPFEGLCREWMWRESAAGRLPFRARAVGRWWDRQDEIDVMAVDNASDAAIVGECKFRNAPVDRSVLNLLRDRAARTGIGQRTYLLFSLGGFDQSLVDDAAASQSDVQLVGIDELFHELEHHHHHH
- soluble on expression in E. coli: not soluble

Sequence: MGSPAHRPALLLLLPPLLLLLLLRVPPSRSFPGSGDSPLEDDEVGYSHPRYKDTPWCSPIKVKYGDVYCRAPQGGYYKTALGTRCDIRCQKGYELHGSSLLICQSNKRWSDKVICKQKRCPTLAMPANGGFKCVDGAYFNSRCEYYCSPGYTLKGERTVTCMDNKAWSGRPASCVDMEPPRIKCPSVKERIAEPNKLTVRVSWETPEGRDTADGILTDVILKGLPPGSNFPEGDHKIQYTVYDRAENKGTCKFRVKVRVKRCGKLNAPENGYMKCSSDGDNYGATCEFSCIGGYELQGSPARVCQSNLAWSGTEPTCAAMNVNVGVRTAAALLDQFYEKRRLLIVSTPTARNLLYRLQLGMLQQAQCGLDLRHITVVELVGVFPTLIGRIGAKIMPPALALQLRLLLRIPLYSFSMVLVDKHGMDKERYVSLVMPVALFNLIDTFPLRKEEMVLQAEMSQTCNT
- soluble on expression in E. coli: soluble

Sequence: MAHHHHHHMADGAAMSLSGQRIPLLKPTLSKWSRQLRSDIYDELLKLPLRYALHDFRTLQAHIHAVPATATNASCTAAAGERLPPGVYHASSGLSSASPDAPAYYAVAGRDSAVGYAPPLGPADPVDVIPFFVHRSSNGHLPGKVYSMNAKTLMPAFYMRIQNIEGDMFRFEEELMKIFPTKKIFVRSHSVYVYNVNLDGRAVLHHWLLGLGF
- soluble on expression in E. coli: soluble

Sequence: MSLDSRKPGHRPVTMRDVAKAAGVSRMTVSRALKKDSPISSETRERILKVVKDMNYVPDQVAGSLTTKRSGFVGLLLPSLNNLHFAQTAQSLTDVLEQGGLQLLLGYTAYSPEREEQLVETMLRRRPEAMVLSYDGHTEQTIRLLQRASIPIVEIWEKPAHPIGHTVGFSNERAAYDMTNALLARGFRKIVFLGEKDDDWTRGAARRAGFKRAMREAGLNPDQEIRLGAPPLSIEDGVAAAELILQEYPDTDCIFCVSDMPAFGLLSRLKSIGVAVPEQVSVVGFGNFEVSRFASPEISTVRVDPIAIGRETGSLILRLLDPKQRSPQTAQHITLPPVLEFRPSLKNEGHHHHHH
- soluble on expression in E. coli: soluble

Sequence: MLPSKYEDNALQIKEKSTERTAPFFVLEVTARSAADILGIHPNSAALFYRKIRTVINHHLALAADEVFEGPVEPDESDFGGRRKGRRGRGAAGKVVVFGILKRNGRVYTVVVDNAKSETLLPVIKKKIMPDSIVYTDSLSSYDKLDVSGFIHYRINHSKECADRQNHINGIENFWNQAKRVLRKYNGIDRKSFPLFLKECEFRFNFGTPSQQLKILRDWCGILEHHHHHH
- soluble on expression in E. coli: not soluble

Sequence: MSLIHIAIAEDDFRVAQIHERLIKQLDGFKIIGKAANAKETLALLKEHKADLLLLDIYMPDELGTALIPDIRSRFPEVDIMIITAATETRHLQEALRAGIAHYLIKPVTADKFRQVLLQYKEKRKLLMSQPKGIITITTDPNSSSVDKLAAALEHHHHHH
- soluble on expression in E. coli: soluble

Sequence: MAEETPPIVELAEWFQTPPGQYVLAWEQAQFDEAVADIFGYYAWQVGLAEPNLLRANRMPFKAWVGAGVPPPELAQGWQACVAAAPEALPFESQSVDLLVLPHAFECAEAPHLVLREVERVLVPEGRVVISGFNPWSLWGARNLMPGMEAWLPLPLSAQVALPRLKDWFKLLSFEVERGRFGCYAPACRTDKWLRRWRFMERYGQRWWGLGGAVYVVTATKKVAAMRLIGPAWKTRRKRAQAASVVVNRQADDPGRLEHHHHHH
- soluble on expression in E. coli: not soluble

Sequence: MSENPLLERARRFLSALRHCQVLGLTVEAADEKGLTLRLPYSQAIIGNPESGVVHGGAITTLMDTTCGISTVCVLPDFEICPTLDLRIDYMHPAEPHKDVYGFAECYRVTPNVIFTRGFAYQDDPGQPIAHVVGAFMRMGLEHHHHHH
- soluble on expression in E. coli: soluble

Sequence: MTDGSMDIDAMLEGGLEMAKNDRSQSRQRSPARSNRSRPSRVPIQSDVD
- soluble on expression in E. coli: not soluble

Sequence: MGSDKIHHHHHHMARINLEQLSTFLAVVRLGGVRRAATSLNLTQPAVTARIKNLEDNLDCELFDRTQSGMKLTKRGELLLGHAEKYEHLTQLVERDLVDPAGVEGRLRLGASETIAQCWLPDLVTRLHQLFPKLEIELVVDISANLRAGLMDRELDLAILLGPLSEFSVNNVELPDFELAWYAAADTSSEAIAASYLSRPVLTYPRNTRPYRELKEKLFEQAGPNFSLFPSSSLSACFRLVEADLGVAVLPRALGREYVLAGRIREFDPGWVPAPLRFTICYMGEPKSQLIETAAHMAREVAVDYHGDKNNL
- soluble on expression in E. coli: not soluble

Sequence: MAHHHHHHMVNEYHEAPRPAITLPRPGTKFRASAVEPILKKVCQTLVGDRAYAHEDVQPLIKEICSEIQQRVVRLGYERYKFVTHATVTEAVNQGIRIASRGLWDPVTDGYASYTFSTETMHVNVVLYALYWE
- soluble on expression in E. coli: not soluble

Source: the DeepSol protein solubility set
